Measured values from patent US20220332848A1.

Tests used:
CD47 = CD47 (UniProt Q08722); assay: FACS binding CHO-K1 cells expressing CD47
human CTLA-4 (human) = human CTLA-4 (human) (UniProt P16410); assay: FACS binding CHO-K1 cells expressing human CTLA-4
Chain of human CTLA-4 (human) (P16410 36-223): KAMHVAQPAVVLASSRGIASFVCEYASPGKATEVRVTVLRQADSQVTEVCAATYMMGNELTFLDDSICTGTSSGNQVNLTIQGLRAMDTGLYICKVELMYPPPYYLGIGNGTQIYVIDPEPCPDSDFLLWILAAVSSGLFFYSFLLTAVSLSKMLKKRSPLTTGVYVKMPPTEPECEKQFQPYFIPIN

Chain of CD47 (Q08722 19-323): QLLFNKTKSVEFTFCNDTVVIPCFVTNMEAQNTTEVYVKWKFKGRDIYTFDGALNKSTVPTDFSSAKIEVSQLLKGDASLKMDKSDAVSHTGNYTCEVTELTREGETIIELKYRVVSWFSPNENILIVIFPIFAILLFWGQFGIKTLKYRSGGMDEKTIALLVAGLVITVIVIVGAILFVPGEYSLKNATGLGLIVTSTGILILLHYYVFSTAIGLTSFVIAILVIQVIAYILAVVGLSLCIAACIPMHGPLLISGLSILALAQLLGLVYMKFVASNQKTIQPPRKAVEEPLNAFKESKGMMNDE

EC50 (CD47): 3.85 nM | EC50 (human CTLA-4 (human)): 42.1 nM
Substance: human IgG
